The values that follow come from IntAct's records for PubMed 12620186.

This assay deals with wipf1_human WIPF1 (UniProt O43516).
Sequence of wipf1_human WIPF1 (O43516 whole entry): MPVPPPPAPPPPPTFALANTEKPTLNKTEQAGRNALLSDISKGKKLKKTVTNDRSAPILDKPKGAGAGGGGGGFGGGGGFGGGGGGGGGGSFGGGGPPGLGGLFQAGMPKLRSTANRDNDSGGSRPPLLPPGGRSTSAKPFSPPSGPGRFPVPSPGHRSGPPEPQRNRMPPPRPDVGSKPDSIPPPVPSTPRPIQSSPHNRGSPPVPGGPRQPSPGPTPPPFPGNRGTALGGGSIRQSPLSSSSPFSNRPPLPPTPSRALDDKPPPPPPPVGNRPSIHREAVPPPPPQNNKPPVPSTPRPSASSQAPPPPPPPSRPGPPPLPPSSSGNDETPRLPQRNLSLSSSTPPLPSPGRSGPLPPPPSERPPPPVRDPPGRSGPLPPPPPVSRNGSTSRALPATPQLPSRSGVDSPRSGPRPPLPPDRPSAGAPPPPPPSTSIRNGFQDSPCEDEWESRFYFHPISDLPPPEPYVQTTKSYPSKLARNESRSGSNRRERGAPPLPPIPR

Sequence of Src substrate cortactin (Mus musculus), Q60598 W526K (Q60598 whole entry W526K): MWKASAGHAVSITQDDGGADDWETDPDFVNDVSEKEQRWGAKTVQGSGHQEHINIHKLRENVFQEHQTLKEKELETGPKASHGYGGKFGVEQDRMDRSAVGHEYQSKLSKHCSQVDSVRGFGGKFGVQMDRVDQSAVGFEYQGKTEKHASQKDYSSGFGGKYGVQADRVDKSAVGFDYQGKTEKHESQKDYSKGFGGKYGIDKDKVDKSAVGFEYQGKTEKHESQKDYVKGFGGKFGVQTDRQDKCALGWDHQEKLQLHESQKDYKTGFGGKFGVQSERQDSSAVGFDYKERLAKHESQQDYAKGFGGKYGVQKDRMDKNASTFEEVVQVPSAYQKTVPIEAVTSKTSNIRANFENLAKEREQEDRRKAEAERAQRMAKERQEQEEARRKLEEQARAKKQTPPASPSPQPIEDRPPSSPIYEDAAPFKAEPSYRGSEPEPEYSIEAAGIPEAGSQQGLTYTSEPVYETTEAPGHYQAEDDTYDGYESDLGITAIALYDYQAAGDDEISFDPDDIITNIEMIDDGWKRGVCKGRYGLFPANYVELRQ

In the case of “Src substrate cortactin (Mus musculus), Q60598 W526K”, the “effect of a mutation on the interaction” value is “disrupting interaction”.
